Measured values as given in patent US20250019412A1 (ALPINE IMMUNE SCIENCES, published 2025).
Like-named read-outs stand apart in the source and are kept apart here.

T1: recombinant human APRIL (human, UniProt O75888 105-250, limits assumed)
T1 sequence (looked up): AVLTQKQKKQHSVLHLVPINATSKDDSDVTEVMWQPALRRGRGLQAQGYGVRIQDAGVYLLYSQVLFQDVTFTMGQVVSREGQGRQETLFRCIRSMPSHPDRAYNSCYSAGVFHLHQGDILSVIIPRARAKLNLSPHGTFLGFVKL


Tests used:
Assay in all cases: cell-based or functional assay
recombinant human APRIL [1] = target: T1, recombinant human APRIL
recombinant human BAFF [2] = target: T2, recombinant human BAFF (human, UniProt Q9Y275 134-285)
recombinant human APRIL [3] = target: T1, recombinant human APRIL; remark: listed apart in the source
recombinant human BAFF [4] = target: T2, recombinant human BAFF; remark: listed apart in the source
recombinant human APRIL [5] = target: T1, recombinant human APRIL; remark: listed apart in the source
recombinant human BAFF [6] = target: T2, recombinant human BAFF; remark: listed apart in the source
recombinant human APRIL [7] = target: T1, recombinant human APRIL; remark: listed apart in the source
recombinant human BAFF [8] = target: T2, recombinant human BAFF; remark: listed apart in the source
recombinant human APRIL [9] = target: T1, recombinant human APRIL; remark: listed apart in the source
recombinant human BAFF [10] = target: T2, recombinant human BAFF; remark: listed apart in the source

Row | IC50 (nM) APRIL (recombinant human APRIL [1]) [nM] | IC50 APRIL (Δ TACI 30-110) (recombinant human APRIL [1]) | IC50 (nM) BAFF (recombinant human BAFF [2]) [nM] | IC50 BAFF (Δ TACI 30-110) (recombinant human BAFF [2]) | APRIL IC50 (pM) (recombinant human APRIL [3]) | APRIL IC50 (ΔWT) (recombinant human APRIL [3]) | BAFF IC50 (pM) (recombinant human BAFF [4]) | BAFF IC50 (ΔWT) (recombinant human BAFF [4]) | IC50 (read off the curve): blockade of human APRIL signalling via TACI (NF-κB luciferase reporter, Jurkat/NF-κB/TACI cells) (recombinant human APRIL [5]) [nM] | IC50 (read off the curve): blockade of human BAFF signalling via TACI (NF-κB luciferase reporter, Jurkat/NF-κB/TACI cells) (recombinant human BAFF [6]) [nM] | IC50 (read off the curve): blockade of human APRIL signalling via TACI (NF-κB luciferase reporter, Jurkat/NF-κB/TACI cells) (recombinant human APRIL [7]) [nM] | IC50 (read off the curve): blockade of human BAFF signalling via TACI (NF-κB luciferase reporter, Jurkat/NF-κB/TACI cells) (recombinant human BAFF [8]) [nM] | IC50 (nM) APRIL (recombinant human APRIL [9]) [nM] | IC50 APRIL (Δ TACI 30-110-Fc) (recombinant human APRIL [9]) | IC50 (nM) BAFF (recombinant human BAFF [10]) [nM] | IC50 BAFF (Δ TACI 30-110-Fc) (recombinant human BAFF [10]) | Binder
1 | 848 | 0.2 fold of TACI 30-110 | 2050 | 0.46 fold of TACI 30-110 | 13200 | 1.07 fold of WT TACI (68-110)-Fc | 1990 | 1.07 fold of WT TACI (68-110)-Fc |  |  |  |  |  |  |  |  | TACI 13-118, with K77E/F78Y/Y102D, Fc fusion (Fc fusion) SRVDQEERFPQGLWTGVAMRSCPEEQYWDPLLGTCMSCKTICNHQSQRTCAAFCRSLSCRKEQGEYYDHLLRDCISCASICGQHPKQCADFCENKLRSPVNLPPELEPKSSDKTHTCPPCPAPEAEGAPSVFLFPPKPKDTLMISRTPEVTCVVVDVSHEDPEVKFNWYVDGVEVHNAKTKPREEQYNSTYRVVSVLTVLHQDWLNGKEYKCKVSNKALPAPIEKTISKAKGQPREPQVYTLPPSRDELTKNQVSLTCLVKGFYPSDIAVEWESNGQPENNYKTTPPVLDSDGSFFLYSKLTVDKSRWQQGNVFSCSVMHEALHNHYTQKSLSLSPG
2 |  |  |  |  |  |  |  |  | ~3 | ~2 |  |  |  |  |  |  | 7 TACI CRD1/CRD2-Fc (Fc fusion) variant TACI domain - linker - Fc fusion chain: VAMRSCPEEQYWDPLLGTCMSCKTICNHQSQRTCAAFCRSLSCRKEQGKFYDHLLRDCISCASICGQHPKQCDYFCENKLRSGSGGGGSEPKSSDKTHTCPPCPAPEAEGAPSVFLFPPKPKDTLMISRTPEVTCVVVDVSHEDPEVKFNWYVDGVEVHNAKTKPREEQYNSTYRVVSVLTVLHQDWLNGKEYKCKVSNKALPAPIEKTISKAKGQPREPQVYTLPPSRDELTKNQVSLTCLVKGFYPSDIAVEWESNGQPENNYKTTPPVLDSDGSFFLYSKLTVDKSRWQQGNVFSCSVMHEALHNHYTQKSLSLSPG
3 | 214 | 0.05 fold of TACI 30-110 | 1270 | 0.28 fold of TACI 30-110 | 9210 | 0.75 fold of WT TACI (68-110)-Fc | 1550 | 0.84 fold of WT TACI (68-110)-Fc |  | ~0.6 | ~0.6 | ~2 | 179 | 0.05 fold of TACI 30-110-Fc | 1220 | 0.21 fold of TACI 30-110-Fc | 26 TACI CRD2-Fc (Fc fusion) SLSCRKEQGEYYDHLLRDCISCASICGQHPKQCADFCENKLRSGSGGGGSEPKSSDKTHTCPPCPAPEAEGAPSVFLFPPKPKDTLMISRTPEVTCVVVDVSHEDPEVKFNWYVDGVEVHNAKTKPREEQYNSTYRVVSVLTVLHQDWLNGKEYKCKVSNKALPAPIEKTISKAKGQPREPQVYTLPPSRDELTKNQVSLTCLVKGFYPSDIAVEWESNGQPENNYKTTPPVLDSDGSFFLYSKLTVDKSRWQQGNVFSCSVMHEALHNHYTQKSLSLSPG
